The text below walks through data of article PMC7125077, “In TFIIH the Arch domain of XPD is mechanistically essential for transcription and DNA repair” (Nature Communications, 2020).

For this assay, the target named is human XPD, wild type (XPD-FLAG) (human, UniProt P18074 1-760). The experiment in a line: cell-based or functional assay.

B1: human CDK activating kinase complex (CAK), wild type: MAT1 / CDK7-Strep / Cyclin H (complex)
chain 1: MDDQGCPRCKTTKYRNPSLKLMVNVCGHTLCESCVDLLFVRGAGNCPECGTPLRKSNFRVQLFEDPTVDKEVEIRKKVLKIYNKREEDFPSLREYNDFLEEVEEIVFNLTNNVDLDNTKKKMEIYQKENKDVIQKNKLKLTREQEELEEALEVERQENEQRRLFIQKEEQLQQILKRKNKQAFLDELESSDLPVALLLAQHKDRSTQLEMQLEKPKPVKPVTFSTGIKMGQHISLAPIHKLEEALYEYQPLQIETYGPHVPELEMLGRLGYLNHVRAASPQDLAGGYTSSLACHRALQDAFSGLFWQPS
chain 2: MALDVKSRAKRYEKLDFLGEGQFATVYKARDKNTNQIVAIKKIKLGHRSEAKDGINRTALREIKLLQELSHPNIIGLLDAFGHKSNISLVFDFMETDLEVIIKDNSLVLTPSHIKAYMLMTLQGLEYLHQHWILHRDLKPNNLLLDENGVLKLADFGLAKSFGSPNRAYTHQVVTRWYRAPELLFGARMYGVGVDMWAVGCILAELLLRVPFLPGDSDLDQLTRIFETLGTPTEEQWPDMCSLPDYVTFKSFPGIPLHHIFSAAGDDLLDLIQGLFLFNPCARITATQALKMKYFSNRPGPTPGCQLPRPNCPVETLKEQSNPALAIKRKRTEALEQGGLPKKLIF
chain 3: MYHNSSQKRHWTFSSEEQLARLRADANRKFRCKAVANGKVLPNDPVFLEPHEEMTLCKYYEKRLLEFCSVFKPAMPRSVVGTACMYFKRFYLNNSVMEYHPRIIMLTCAFLACKVDEFNVSSPQFVGNLRESPLGQEKALEQILEYELLLIQQLNFHLIVHNPYRPFEGFLIDLKTRYPILENPEILRKTADDFLNRIALTDAYLLYTPSQIALTAILSSASRAGITMESYLSESLMLKENRTCLSQLLDIMKSMRNLVKKYEPPRSEEVAVLKQKLERCHSAELALNVITKKRKGYEDDDYVSKKSKHEEEEWTDDDLVESL
B1: the “in vitro transcription of TFIIH reconstituted from rIIH6, CAK and XPD, % of wild type” value turned out to be 100%.
